Reference: paper PMC6824560, “Insight into the relationship between aryl-hydrocarbon receptor and β-catenin in human colon cancer cells” (PLoS ONE, 2019)

Biological target: T1, human Arnt fused to Gal4 DNA-binding domain in pGBKT7 (human, UniProt P27540 1-789)
T1 construct: Arnt, human cDNA; This fusion alone induces the reporter; also called pGBK-Arnt; source: yeast two-hybrid fusion, yeast strain Y187
Test: two-hybrid; yeast two-hybrid in strain Y187, pGADT7 and pGBKT7 fusions, 1 μM 3MC or 0.1% DMSO for 12 h at 30°C, β-galactosidase read-out (o-nitrophenol-β-D-galactopyranoside); DDB1 or CUL4B co-expressed from pESC in some samples
Conditions: partners not purified

T1 sequence (P27540 whole entry, the tested form may be a part): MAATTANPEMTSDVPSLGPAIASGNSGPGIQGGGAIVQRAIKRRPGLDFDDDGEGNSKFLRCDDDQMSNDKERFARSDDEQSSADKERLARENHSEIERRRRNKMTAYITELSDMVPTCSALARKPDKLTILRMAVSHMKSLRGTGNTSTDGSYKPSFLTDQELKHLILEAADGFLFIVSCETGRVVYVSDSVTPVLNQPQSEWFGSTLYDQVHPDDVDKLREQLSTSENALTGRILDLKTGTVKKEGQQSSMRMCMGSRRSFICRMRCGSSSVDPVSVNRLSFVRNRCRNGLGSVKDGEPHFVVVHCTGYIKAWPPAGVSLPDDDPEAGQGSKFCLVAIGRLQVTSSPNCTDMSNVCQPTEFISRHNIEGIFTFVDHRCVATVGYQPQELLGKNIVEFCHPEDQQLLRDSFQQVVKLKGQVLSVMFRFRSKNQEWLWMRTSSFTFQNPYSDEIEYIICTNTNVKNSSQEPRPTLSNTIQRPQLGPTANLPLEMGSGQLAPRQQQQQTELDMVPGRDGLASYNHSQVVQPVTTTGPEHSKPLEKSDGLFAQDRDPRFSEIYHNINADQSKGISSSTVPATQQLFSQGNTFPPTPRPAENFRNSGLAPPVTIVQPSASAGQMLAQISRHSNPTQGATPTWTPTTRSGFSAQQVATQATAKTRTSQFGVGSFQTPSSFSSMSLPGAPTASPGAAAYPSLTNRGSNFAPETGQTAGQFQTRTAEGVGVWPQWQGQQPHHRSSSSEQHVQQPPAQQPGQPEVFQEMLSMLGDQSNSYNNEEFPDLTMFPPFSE

B1: human AhR fused to Gal4 activating domain in pGADT7 (natural protein, UniProt P35869 1-848, looked up)
chain: MNSSSANITYASRKRRKPVQKTVKPIPAEGIKSNPSKRHRDRLNTELDRLASLLPFPQDVINKLDKLSVLRLSVSYLRAKSFFDVALKSSPTERNGGQDNCRAANFREGLNLQEGEFLLQALNGFVLVVTTDALVFYASSTIQDYLGFQQSDVIHQSVYELIHTEDRAEFQRQLHWALNPSQCTESGQGIEEATGLPQTVVCYNPDQIPPENSPLMERCFICRLRCLLDNSSGFLAMNFQGKLKYLHGQKKKGKDGSILPPQLALFAIATPLQPPSILEIRTKNFIFRTKHKLDFTPIGCDAKGRIVLGYTEAELCTRGSGYQFIHAADMLYCAESHIRMIKTGESGMIVFRLLTKNNRWTWVQSNARLLYKNGRPDYIIVTQRPLTDEEGTEHLRKRNTKLPFMFTTGEAVLYEATNPFPAIMDPLPLRTKNGTSGKDSATTSTLSKDSLNPSSLLAAMMQQDESIYLYPASSTSSTAPFENNFFNESMNECRNWQDNTAPMGNDTILKHEQIDQPQDVNSFAGGHPGLFQDSKNSDLYSIMKNLGIDFEDIRHMQNEKFFRNDFSGEVDFRDIDLTDEILTYVQDSLSKSPFIPSDYQQQQSLALNSSCMVQEHLHLEQQQQHHQKQVVVEPQQQLCQKMKHMQVNGMFENWNSNQFVPFNCPQQDPQQYNVFTDLHGISQEFPYKSEMDSMPYTQNFISCNQPVLPQHSKCTELDYPMGSFEPSPYPTTSSLEDFVTCLQLPENQKHGLNPQSAIITPQTCYAGAVSMYQCQPEPQHTHVGQMQYNPVLPGQQAFLNKFQNGVLNETYPAELNNINNTQTTTHLQPLHHPSEARPFPDLTSSGFL
notes: aryl-hydrocarbon receptor (AhR), human cDNA; also called pGAD-AhR; aryl-hydrocarbon receptor; source: yeast two-hybrid fusion, yeast strain Y187
B1 was tested, and the “fold increase of two-hybrid reporter activity over pGBK-Arnt alone” value was ~3 fold.
